Experimental data as given in article PMC6561087 (Nature, 2019).

B1: IFNγR2, wild type, recombinant soluble receptor (receptor)
chain: SQLPAPQHPKIRLYNAEQVLSWEPVALSNSTRPVVYQVQFKYTDSKWFTADIMSIGVNCTQITATECDFTAASPSAGFPMDFNVTLRLRAELGALHSAWVTMPWFQHYRNVTVGPPENIEVTPGEGSLIIRFSSPFDIADTSTAFFCYYVHYWEKGGIQQVKGPFRSNSISLDNLKPSRVYCLQVQAQLLWNKSNIFRVGHLSNISCYETMADASTELQQ
B2: IFNγ(K74A/E75Y/N83R) triple mutant (ligand)
chain: QDPYVKEAENLKKYFNAGHSDVADNGTLFLGILKNWKEESDRKIMQSQIVSFYFKLFKNFKDDQSIQKSVETIAYDMNVKFFRSNKKKRDDFEKLTNYSVTDLNVQRKAIHELIQVMAELSPAAKTGKRKRSQ

How the values were obtained:
[1] = biological target: 2:2 IFNγ–IFNγR1 intermediate complex (wild type), formed on the SPR chip (UniProt P15260); assay: SPR
[2] = biological target: T1, IFNγR1, wild type, recombinant soluble receptor captured on the SPR chip (UniProt P15260 18-245); assay: SPR
T1 sequence (looked up): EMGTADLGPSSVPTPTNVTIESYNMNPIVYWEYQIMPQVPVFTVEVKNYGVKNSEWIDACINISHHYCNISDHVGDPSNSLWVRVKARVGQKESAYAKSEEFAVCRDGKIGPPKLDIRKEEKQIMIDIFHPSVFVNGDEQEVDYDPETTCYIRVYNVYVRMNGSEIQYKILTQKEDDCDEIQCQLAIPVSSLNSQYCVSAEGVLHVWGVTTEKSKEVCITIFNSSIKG

Binder | Kd [1] [µM] | binding result [2]
B1 | 5 | 
B2 |  | binds
